Assay results reported in publication doi:10.1101/2024.04.27.591446 (bioRxiv, 2024).

Tests used:
[1] = biological target: SARS-CoV-2 EG5.1 S ectodomain with 6P and furin mutations, trimer (SARS-CoV-2 Omicron EG.5.1, stabilised); assay: cryo-EM structure
[2] = biological target: SARS-CoV-2 Spike Wuhan-Hu-1 (SARS-CoV-2 Wuhan-Hu-1, UniProt P0DTC2); assay: ELISA

Binder	stoichiometry N [1] [Fab per Spike trimer]	binding result [2]
1301B7 Fab (Fab, V domains shown) VH: EVQLVESGAEVKNPGSSVKVSCKASEGTFGSYPIIWVRQAPGQGLEWVGGIIPILGTVIYAQKFQGRVTITGDTYAGSAHMELSGLRSEDTAVFYCARGSYDYGDRLLNYTYYAMDVWGPGTTVTVSS VL: QPGLTQPPSVSGAPGQRVTISCTGSRSNIGAVYAVHWYQHVPGAAPKLLIYENNNRPSGIPDRFSGSKSGTSASLVITGLQAEDEADYLCQSYDRSVGVVFGGGTRLTVL	1	
1301B7 recombinant human monoclonal antibody (hmAb), IgG1 (antibody, V domains shown) VH: EVQLVESGAEVKNPGSSVKVSCKASEGTFGSYPIIWVRQAPGQGLEWVGGIIPILGTVIYAQKFQGRVTITGDTYAGSAHMELSGLRSEDTAVFYCARGSYDYGDRLLNYTYYAMDVWGPGTTVTVSS VL: QPGLTQPPSVSGAPGQRVTISCTGSRSNIGAVYAVHWYQHVPGAAPKLLIYENNNRPSGIPDRFSGSKSGTSASLVITGLQAEDEADYLCQSYDRSVGVVFGGGTRLTVL		binds
